Measured values: US7589065

T1: Ala-Ala-Tyr-Ala-Ala
T1 chain: AAYAA

B1: trigger factor (TF) (protein)
chain: MQVSVETTQGLGRRVTITIAADSIETAVKSELVNVAKKVRIDGFRKGKVPMNIVAQRYGASVRQDVLGDLMSRNFIDAIIKEKINPAGAPTYVPGEYKLGEDFTYSVEFEVYPEVELQGLEAIEVEKPIVEVTDADVDGMLDTLRKQQATWKEKDGAVEAEDRVTIDFTGSVDGEEFEGGKASDFVLAMGQGRMIPGFEDGIKGHKAGEEFTIDVTFPEEYHAENLKGKAAKFAINLKKVEERELPELTAEFIKRFGVEDGSVEGLRAEVRKNMERELKSAIRNRVKSQAIEGLVKANDIDVPAALIDSEIDVLRRQAAQRFGGNEKQALELPRELFEEQAKRRVVVGLLLGEVIRTNELKADEERVKGLIEEMASAYEDPKEVIEFYSKNKELMDNMRNVALEEQAVEAVLAKAKVTEKETTFNELMNQQA
B2: Parvulin (protein)
chain: AKTAAALHILVKEEKLALDLLEQIKNGADFGKLAKKHSICPSGKRGGDLGEFRQGQMVPAFDKVVFSCPVLEPTGPLHTQFGYHIIKVLYRN
B3: fragment of the trigger factor (protein)
chain: RKQQATWKEKDGAVEAEDRVTIDFTGSVDGEEFEGGKASDFVLAMGQGRMIPGFEDGIKGHKAGEEFTIDVTFPEEYHAENLKGKAAKFAINLKKVEERELPELTAE

Molecular target: T1, Ala-Ala-Tyr-Ala-Ala

Protein	relative intensity of the cross signal of the Ala-Tyr peptide bond (no addition: 3.50 ± 0.51) (relative intensity)	relative intensity of the cross signal of the Tyr-Ala peptide bond (no addition: 3.89 ± 0.32) (relative intensity)
B1	3.83	4.42
B2	2.9	3.11
B3	3.96	3.22
